{"source": "patent US20240115603A1", "about": "(Zymeworks, published 2024)", "binders": {"B1": {"name": "WT G-CSF, purified, tag cleaved (ligand)", "chain": "TPLGPASSLPQSFLLKCLEQVRKIQGDGAALQEKLCATYKLCHPEELVLLGHSLGIPWAPLSSCPSQALQLAGCLSQLHSGLFLYQGLLQALEGISPELGPTLDTLQLDVADFATTIWQQMEELGMAPALQPTQGAMPAFASAFQRRAGGVLVASHLQSFLEVSYRVLRHLAQAAAENLYFQ", "notes": "also called G-CSFWT"}, "B2": {"name": "WT G-CSFR(Ig-CRH), purified, tag cleaved (receptor)", "chain": "GSMGCGHISVSAPIVHLGDPITASCIIKQNCSHLDPEPQILWRLGAELQPGGRQQRLSDGTQESIITLPHLNHTQAFLSCSLNWGNSLQILDQVELRAGYPPAIPHNLSCLMNLTTSSLICQWEPGPETHLPTSFTLKSFKSRGNCQTQGDSILDCVPKDGQSHCSIPRKHLLLYQNMGIWVQAENALGTSMSPQLCLDPMDVVKLEPPMLRTMDPSPEAAPPQAGCLQLSWEPWQPGLHINQKCELRHKPQRGEASWALVGPLPLEALQYELCGLLPATAYTLQIRCIRWPLPGHWSDWSPSLELRTTE", "notes": "also called G-CSFRWT; wild type G-CSFR ECD"}, "B3": {"name": "WT G-CSF with C-terminal Twin Strep tag (ligand)", "chain": "not shown", "notes": "also called G-CSFWT"}}, "key": {"[1]": {"molecular_target": "T1, G-CSFR(Ig-CRH)E design 9, purified, tag cleaved (human, UniProt Q99062 26-331)", "T1 construct": "SPR protein; also called Design 9 G-CSFR(Ig-CRH)E", "T1 chain": "B2 chain with R143E, R169D, K170D, Q176D", "assay": "SPR (Biacore T200), WT G-CSF vs design receptor; steady-state derived KD relative to steady-state WT:WT KD (larger = weaker)"}, "[2]": {"molecular_target": "T2, G-CSFR(Ig-CRH)E design 34, purified, tag cleaved (human, UniProt Q99062 26-331)", "T2 construct": "SPR protein; also called Design 34 G-CSFR(Ig-CRH)E", "T2 chain": "B2 chain with R143E, R169D", "assay": "SPR (Biacore T200), WT G-CSF vs design receptor; steady-state derived KD relative to steady-state WT:WT KD (larger = weaker)"}, "[3]": {"molecular_target": "T3, G-CSFR(Ig-CRH)E design 30, purified, tag cleaved (human, UniProt Q99062 26-331)", "T3 construct": "also called Design 30 G-CSFR(Ig-CRH)E", "T3 chain": "B2 chain with R169D", "assay": "SPR (Biacore T200)"}, "[4]": {"molecular_target": "T1, G-CSFR(Ig-CRH)E design 9, purified, tag …", "assay": "SPR (Biacore T200)"}, "[5]": {"molecular_target": "T2, G-CSFR(Ig-CRH)E design 34, purified, …", "assay": "SPR (Biacore T200)"}, "[6]": {"molecular_target": "T4, G-CSFR(Ig-CRH)E design 35, purified, tag cleaved (human, UniProt Q99062 26-331)", "T4 construct": "SPR protein; also called Design #35 G-CSFR(Ig-CRH)E", "T4 chain": "B2 chain with R143E, L173E, Q176E", "assay": "SPR (Biacore T200), WT G-CSF vs design receptor; KD relative to WT:WT control (larger = weaker)"}, "[7]": {"molecular_target": "T3, G-CSFR(Ig-CRH)E design 30, purified, …", "assay": "SPR (Biacore T200), WT G-CSF vs design receptor; KD relative to WT:WT control (larger = weaker)"}, "[8]": {"molecular_target": "B1", "assay": "SPR (Biacore T200, 25 C), kinetic fit, 1:1 Langmuir; range over independent experiments; lower end of the range over the WT:WT runs", "protocol": "The SPR binding assays were carried out on a Biacore T200 instrument (GE Healthcare, Mississauga, ON, Canada) with PBS-T (PBS+0.05% (v/v) Tween 20) running buffer at a temperature of 25° C. […] Designs were assessed in three different immobilization orientations.\nDouble-referenced sensorgrams from duplicate or triplicate repeat injections were analyzed using Biacore™ T200 Evaluation Software v3.0 and fit to the 1:1 Langmuir binding model.\nKinetic-derived affinity constants (KD) where obtained by fitting the association and dissociation phases of the curves. […] For the cases in which the kinetic parameters could not be fit an attempt was made to derive a steady state affinity constant."}, "[9]": {"molecular_target": "T5, G-CSFR(Ig-CRH)E combination design 401 with N-terminal His tag (human, UniProt Q99062 25-331)", "T5 construct": "also called design 401 engineered receptor", "T5 chain": "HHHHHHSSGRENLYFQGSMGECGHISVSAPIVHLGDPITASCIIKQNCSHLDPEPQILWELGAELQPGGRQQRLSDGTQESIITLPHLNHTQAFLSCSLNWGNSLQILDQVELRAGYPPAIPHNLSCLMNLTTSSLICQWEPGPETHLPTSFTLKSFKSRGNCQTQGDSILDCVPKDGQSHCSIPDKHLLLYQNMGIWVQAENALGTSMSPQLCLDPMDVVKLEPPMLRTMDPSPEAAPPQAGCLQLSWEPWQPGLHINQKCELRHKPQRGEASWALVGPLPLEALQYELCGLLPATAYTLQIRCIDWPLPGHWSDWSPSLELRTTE", "assay": "co-expression in Tni insect cells, pulldown via Twin Strep tag on G-CSF, SDS-PAGE"}, "[10]": {"molecular_target": "T6, G-CSFR(CRH)E site II design 9 with N-terminal His tag (human)", "T6 construct": "also called design #9 G-CSFR(CRH)E", "T6 chain": "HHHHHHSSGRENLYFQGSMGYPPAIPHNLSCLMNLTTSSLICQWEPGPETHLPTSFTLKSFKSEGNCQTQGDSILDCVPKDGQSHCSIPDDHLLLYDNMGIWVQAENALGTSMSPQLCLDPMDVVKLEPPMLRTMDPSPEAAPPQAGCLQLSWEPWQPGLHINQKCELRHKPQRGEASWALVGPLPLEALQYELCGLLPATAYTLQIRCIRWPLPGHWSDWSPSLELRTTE", "assay": "co-expression in Tni insect cells, pulldown via Twin Strep tag on G-CSF, SDS-PAGE"}, "[11]": {"molecular_target": "T7, G-CSFR(CRH)E site II design 8 with N-terminal His tag (human)", "T7 construct": "also called design #8 G-CSFR(CRH)E", "T7 chain": "T6 chain with E64R, D97Q, D120E", "assay": "co-expression in Tni insect cells, pulldown via Twin Strep tag on G-CSF, SDS-PAGE"}, "[12]": {"molecular_target": "T8, G-CSFR(CRH)E site II design 30 with N-terminal His tag (human, UniProt Q99062 120-331)", "T8 construct": "also called design #30 G-CSFR(CRH)E", "T8 chain": "T6 chain with E64R, D91K, D97Q", "assay": "co-expression in Tni insect cells, pulldown via Twin Strep tag on G-CSF, SDS-PAGE"}, "[13]": {"molecular_target": "T9, G-CSFR(CRH)E site II design 34 with N-terminal His tag (human, UniProt Q99062 120-331)", "T9 construct": "also called design #34 G-CSFR(CRH)E", "T9 chain": "T6 chain with D91K, D97Q", "assay": "co-expression in Tni insect cells, pulldown via Twin Strep tag on G-CSF, SDS-PAGE"}, "[14]": {"molecular_target": "T10, G-CSFR(CRH)E site II design 15 with N-terminal His tag (human)", "T10 construct": "also called design #15 G-CSFR(CRH)E", "T10 chain": "T6 chain with E64R, D90R, D91K, L94R, Y96V, D97Q, D120R", "assay": "co-expression in Tni insect cells, pulldown via Twin Strep tag on G-CSF, SDS-PAGE"}, "[15]": {"molecular_target": "T11, G-CSFR(Ig-CRH)E combination design 402 with N-terminal His tag (human, UniProt Q99062 25-331)", "T11 construct": "also called design 402 engineered receptor", "T11 chain": "T5 chain with D186E, Q193E, D307E", "assay": "co-expression in Tni insect cells, pulldown via Twin Strep tag on G-CSF, SDS-PAGE"}, "[16]": {"molecular_target": "T12, G-CSFR(CRH)E site II design 35 with N-terminal His tag (human)", "T12 construct": "also called design #35 G-CSFR(CRH)E", "T12 chain": "T6 chain with D90R, D91K, L94E, D97E", "assay": "co-expression in Tni insect cells, pulldown via Twin Strep tag on G-CSF, SDS-PAGE"}}, "note": "Numbering of substitutions follows the chain as printed."}
{"binder": "B1", "values": [{"measurement": "KD fold change (vs WT:WT)", "setting": "[1]", "result": 8810, "unit": "fold"}, {"measurement": "KD fold change (vs WT:WT)", "setting": "[2]", "result": 4260, "unit": "fold"}, {"measurement": "fold weaker affinity (vs WT:WT)", "setting": "[3]", "result": 700, "unit": "fold"}, {"measurement": "fold weaker affinity (vs WT:WT)", "setting": "[4]", "result": 700, "unit": "fold"}, {"measurement": "fold weaker affinity (vs WT:WT)", "setting": "[5]", "result": 700, "unit": "fold"}, {"measurement": "KD fold change (vs WT:WT)", "setting": "[6]", "result": 19, "unit": "fold"}, {"measurement": "KD fold change (vs WT:WT)", "setting": "[7]", "result": 774, "unit": "fold"}]}
{"binder": "B2", "values": [{"measurement": "Kd", "setting": "[8]", "result": "1.8 to 2.5", "unit": "nM"}]}
{"binder": "B3", "values": [{"measurement": "binding result", "setting": "[9]", "result": "no binding"}, {"measurement": "binding result", "setting": "[10]", "result": "no binding"}, {"measurement": "binding result", "setting": "[11]", "result": "no binding"}, {"measurement": "binding result", "setting": "[12]", "result": "no binding"}, {"measurement": "binding result", "setting": "[13]", "result": "no binding"}, {"measurement": "binding result", "setting": "[14]", "result": "no binding"}, {"measurement": "binding result", "setting": "[15]", "result": "no binding"}, {"measurement": "binding result", "setting": "[16]", "result": "no binding"}]}
